The results in this text go back to patent US20030073824A1, “DNA encoding methymycin and pikromycin” (priority 1999, published 2003).

For data set [1], the target named is A. eutrophus PHA synthase (Cupriavidus necator, UniProt P23608). Particulars: read-out: apparent Km (substrate concentration at half-optimal velocity); enzyme 0.95 mg/ml; 40 or 200 μl assay volumes; FIG. 10.
Data set [2] is described as follows: Storage stability of PHA synthase purified from insect cells. It is filed as physicochemical. The procedure: Fraction collection tubes were prepared by addition of […] of 100 mM EDTA to provide a metalloprotease inhibitor at 1 mM immediately after HA chromatography. PHA synthase was eluted in a broad peak between 110-180 mM KPi. Fractions (3 ml) containing significant PHA synthase activity were pooled and stored at 0° C. until the entire soluble fraction had been run through the chromatographic process. Pooled fractions then were concentrated at 4° C. by use of a Centriprep-30 concentrator (Amicon) to 3.8 mg/ml. Aliquots (0.5 ml) were either flash frozen and stored in liquid N2 or glycerol was added to a final concentration of 50% and samples (1.9 mg/ml) were stored at −20° C.
PHA synthase purified from insect cells appears to be relatively stable.

Data set [3] deals with the molecule itself. The experiment in a line: size exclusion chromatography of native protein (forms of about 100-160 kDa and 50-80 kDa).

In the case of 3-hydroxybutyrate CoA [HBCoA], in data set [1], the Km stood at 2500 µM.

B1: A. eutrophus PHA synthase (phbC gene product) produced in insect cells with a baculovirus vector (enzyme, Alcaligenes eutrophus, UniProt P23608 7-589, looked up)
chain: AAASTQEGKSQPFKVTPGPFDPATWLEWSRQWQGTEGNGHAAASGIPGLDALAGVKIAPAQLGDIQQRYMKDFSALWQAMAEGKAEATGPLHDRRFAGDAWRTNLPYRFAAAFYLLNARALTELADAVEADAKTRQRIRFAISQWVDAMSPANFLATNPEAQRLLIESGGESLRAGVRNMMEDLTRGKISQTDESAFEVGRNVAVTEGAVVFENEYFQLLQYKPLTDKVHARPLLMVPPCINKYYILDLQPESSLVRHVVEQGHTVFLVSWRNPDASMAGSTWDDYIEHAAIRAIEVARDISGQDKINVLGFCVGGTIVSTALAVLAARGEHPAASVTLLTTLLDFADTGILDVFVDEGHVQLREATLGGGAGAPCALLRGLELANTFSFLRPNDLVWNYVVDNYLKGNTPVPFDLLFWNGDATNLPGPWYCWYLRHTYLQNELKVPGKLTVCGVPVDLASIDVPTYIYGSREDHIVPWTAAYASTALLANKLRFVLGASGHIAGVINPPAKNKRSHWTNDALPESPQQWLAGAIEHHGSWWPDWTAWLAGQAGAKRAAPANYGNARYRAIEPAPGRYVKAKA
notes: Denatured on SDS-PAGE for the Western blots; Size exclusion chromatography used the native purified protein; also called PHB synthase; 64 kDa protein
Take B1: the synthase activity remained result is reported as “approximately 75%” in data set [2] (after 7 weeks stored at −20° C. in the presence of 50% glycerol) and “approximately 50%” in data set [2] (after 7 weeks stored in liquid N2). In addition, in data set [3], the binding result is listed as “binds”.
